Data: PMC2483945, “Structure of the Head of the Bartonella Adhesin BadA” (PLoS Pathogens, 2008)

Assays:
[1] = target: BadA head fragment after chymotrypsin treatment (protease-resistant fragment of approx. 14 kDa) (Bartonella henselae); assay: not stated; fragments of approx. 14 kDa after trypsin or chymotrypsin treatment (10 min, room temperature, 20 mM MOPS/KOH pH 7.2, 150 mM NaCl); how the trimers were shown is not told
[2] = target: BadA head fragment after trypsin treatment (protease-resistant fragment of approx. 14 kDa) (Bartonella henselae); assay: as above
[3] = target: the molecule itself; assay: SEC-MALS; calibrated analytical S200 column (GE Healthcare) coupled to a MiniDAWN Tristar static light scattering detector; data not shown

## BadA head fragment after chymotrypsin treatment (protease-resistant fragment of approx. 14 kDa) (domain or fragment)
[1]
  stoichiometry N: 3

## BadA head fragment after trypsin treatment (protease-resistant fragment of approx. 14 kDa) (domain or fragment)
[2]
  stoichiometry N: 3

B1: BadA head fragment (Trp-ring domain, GIN domain, neck and first stalk segment; residues 375 to 536) (domain or fragment)
chain: KALRGMISEKGGWNLTVNNDNNTVVSSGGALDLSSGSKNLKIVKDGKKNNVTFDVARDLTLKSIKLDGVTLNETGLFIANGPQITASGINAGSQKITGVAEGTDANDAVNFGQLKKIETEVKEQVAASGFVKQDSDTKYLTIGKDTDGDTINIANNKSDKRT
notes: Residues 385-498 are resolved in the crystal; also called BadA construct; BadA fragment; source: recombinantly expressed, purified as described [11]
[3]
  stoichiometry N: 3
